Results published in patent US20150353909.

Columns and labels:
[1] = molecular target: K63-tetraubiquitin chains (UniProt P0CG48)
[2] = test system: purified recombinant linear UB trimers
HA3-SUMO-GST = HA3-SUMO-GST (UniProt P55852)
HA3-RUB-GST = HA3-RUB-GST (UniProt Q9SHE7)
[3] = test system: purified recombinant linear UB tetramers
[4] = test system: purified recombinant linear UB dimers
[5] = molecular target: K48-tetraubiquitin chains (UniProt P0CG48)
[6] = test system: HA3-UBQ-GST [GST: P08515]

Measured: in vitro deubiquitylation activity

Sequence of His-tagged OTU12 (Q9SGA5 whole entry): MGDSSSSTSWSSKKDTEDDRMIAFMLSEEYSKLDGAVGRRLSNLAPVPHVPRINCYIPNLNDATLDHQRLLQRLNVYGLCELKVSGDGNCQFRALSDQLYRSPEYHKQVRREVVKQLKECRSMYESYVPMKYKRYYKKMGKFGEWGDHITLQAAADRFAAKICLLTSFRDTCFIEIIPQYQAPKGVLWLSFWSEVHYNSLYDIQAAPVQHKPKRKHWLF
Sequence of K63-tetraubiquitin chains (P0CG48 whole entry, looked up): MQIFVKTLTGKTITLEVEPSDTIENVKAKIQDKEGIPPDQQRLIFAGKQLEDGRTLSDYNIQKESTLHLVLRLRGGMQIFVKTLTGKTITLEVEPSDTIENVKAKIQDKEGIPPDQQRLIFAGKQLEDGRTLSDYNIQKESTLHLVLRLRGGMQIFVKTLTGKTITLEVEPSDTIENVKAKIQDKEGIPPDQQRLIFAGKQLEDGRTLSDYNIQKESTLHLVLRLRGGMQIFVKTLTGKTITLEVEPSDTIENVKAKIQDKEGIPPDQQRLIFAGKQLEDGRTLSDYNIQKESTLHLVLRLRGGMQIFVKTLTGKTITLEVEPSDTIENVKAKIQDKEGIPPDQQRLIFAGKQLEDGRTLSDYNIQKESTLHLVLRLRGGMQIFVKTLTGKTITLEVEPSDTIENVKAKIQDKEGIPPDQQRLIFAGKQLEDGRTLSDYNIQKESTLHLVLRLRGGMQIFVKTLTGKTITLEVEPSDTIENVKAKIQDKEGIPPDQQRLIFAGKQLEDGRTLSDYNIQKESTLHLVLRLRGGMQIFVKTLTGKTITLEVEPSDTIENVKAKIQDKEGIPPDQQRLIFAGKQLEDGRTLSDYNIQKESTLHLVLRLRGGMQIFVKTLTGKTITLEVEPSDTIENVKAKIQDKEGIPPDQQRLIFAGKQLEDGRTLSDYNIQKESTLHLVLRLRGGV
Sequence of K48-tetraubiquitin chains (P0CG48 whole entry, looked up): as above
Sequence of His-tagged OTU11a (Q0V869 whole entry): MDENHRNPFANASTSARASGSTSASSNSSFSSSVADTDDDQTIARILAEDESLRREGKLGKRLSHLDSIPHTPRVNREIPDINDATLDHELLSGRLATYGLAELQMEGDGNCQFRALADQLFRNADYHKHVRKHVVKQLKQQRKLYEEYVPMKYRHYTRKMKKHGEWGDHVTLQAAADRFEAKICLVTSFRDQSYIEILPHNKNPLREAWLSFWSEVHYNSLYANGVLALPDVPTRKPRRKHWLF

His-tagged OTU12
-: [1] | [2] | HA3-SUMO-GST | HA3-RUB-GST | [3] | [4] | [5] | [6]

His-tagged OTU11a
-: [1] | [2] | HA3-SUMO-GST | HA3-RUB-GST | [3] | [4] | [5] | [6]

OTU4d
-: [1] | [2] | HA3-SUMO-GST | HA3-RUB-GST | [3] | [4] | [5] | [6]

His-tagged OTLD1a
-: [1] | [2] | HA3-SUMO-GST | HA3-RUB-GST | [3] | [4] | [5] | [6]

His-tagged OTU5b
-: [1] | [2] | HA3-SUMO-GST | HA3-RUB-GST | [3] | [4] | [5] | [6]
